Each block holds one molecule with its values, some of them ahead of it. Non-standard residues stand in square brackets, D forms with d. No end group written: not given here. pS = N[C@@H](COP(=O)(O)O)C(=O)O; FAM = fluorescein label
B1: CHC 1–574 (clathrin heavy chain propeller‐ankle fragment) (domain or fragment, UniProt Q00610 1-574, looked up)
chain: MAQILPIRFQEHLQLQNLGINPANIGFSTLTMESDKFICIREKVGEQAQVVIIDMNDPSNPIRRPISADSAIMNPASKVIALKAGKTLQIFNIEMKSKMKAHTMTDDVTFWKWISLNTVALVTDNAVYHWSMEGESQPVKMFDRHSSLAGCQIINYRTDAKQKWLLLTGISAQQNRVVGAMQLYSVDRKVSQPIEGHAASFAQFKMEGNAEESTLFCFAVRGQAGGKLHIIEVGTPPTGNQPFPKKAVDVFFPPEAQNDFPVAMQISEKHDVVFLITKYGYIHLYDLETGTCIYMNRISGETIFVTAPHEATAGIIGVNRKGQVLSVCVEEENIIPYITNVLQNPDLALRMAVRNNLAGAEELFARKFNALFAQGNYSEAAKVAANAPKGILRTPDTIRRFQSVPAQPGQTSPLLQYFGILLDQGQLNKYESLELCRPVLQQGRKQLLEKWLKEDKLECSEELGDLVKSVDPTLALSVYLRANVPNKVIQCFAETGQVQKIVLYAKKVGYTPDWIFLLRNVMRISPDQGQQFAQMLVQDEEPLADITQIVDVFMEYNLIQQCTAFLLDALKNNR
notes: source: modified pGEX vector

Experiments:
[1] = NMR chemical shift index analysis of TACC3 549–570 helicity; assay type: physicochemical; conditions: 2 mM peptide, 20 mM Tris pH 7.2, 50 mM NaCl, 290 K, αH and αC secondary shifts
Excerpt: We used NMR spectroscopy to determine the extent to which these α‐helices are present in TACC3 in the absence of binding partners in solution. Chemical shift index (CSI) plots were created for phosphorylated and unphosphorylated TACC3^CID following standard methods (Fig 7D and E; Wishart & Sykes, 1994). In addition to calculating α‐proton chemical shifts we also measured secondary chemical shifts for α‐carbons. After the type of amino acid, the main contribution to chemical shifts of α‐carbons is the ψ angle and thus the backbone conformation. Proximity of charges or aromatic side chains which can strongly affect proton chemical shifts has virtually no effect on the chemical shifts of α‐carbons which makes them very robust probes of backbone conformation. […] We concluded that phosphorylation of S558 increases the propensity for α‐helix formation in TACC3, and we examined the structure to identify the mechanism.
For analysis of TACC3 549–570 helicity, synthetic peptides were weighed in to give a sample concentration of 2 mM in 20 mM Tris pH 7.2 and 50 mM NaCl. Spectra were recorded at a temperature of 290 K on a Bruker Avance‐Neo 600 MHz spectrometer equipped with a prodigy cryoprobe. Peptides were assigned using 2D NOESY, TOCSY and 13C HSQC spectra recorded with watergate and gradient coherence selection, respectively. […]

[2] = biological target: WT Aurora‐A (of the FP assays) (human) (UniProt O14965)
[3] = biological target: FAM‐TACC3 522–536 (WT site 1 peptide) (human) (UniProt Q9Y6A5); test: fluorescence polarisation; FAM‐TACC3 peptides with Aurora‐A; performed as in Richards et al, 2016; triplicate; one‐site total binding fit; Kd ± SE
[4] = biological target: FAM‐TACC3 522–536 phosphorylated on T534 (human) (UniProt Q9Y6A5); test: as above
[5] = biological target: FAM‐WT TACC3 519–570 (human) (UniProt Q9Y6A5); test: as above
[6] = biological target: FAM‐TACC3 522–536 F525A (human) (UniProt Q9Y6A5); test: as above
[7] = biological target: FAM‐TACC3 522–536 R526A (human) (UniProt Q9Y6A5); test: as above
[8] = biological target: FAM‐TACC3 522–536 L532A (human) (UniProt Q9Y6A5); test: as above
[9] = biological target: T1, TACC3 546-573 pS558 (Homo sapiens, phospho-Ser558; FAM-labelled); test: FP
T1 chain: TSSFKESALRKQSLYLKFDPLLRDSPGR

[10] = biological target: T2, TACC3 552-567 pS558 (Homo sapiens, also: FAM-labelled, place not given here); test: FP
T2 chain: SALRKQ[pS]LYLKFDPLL

[11] = biological target: T3, FAM‐phospho‐TACC3^CID Y560A (human, UniProt Q9Y6A5 549-570, Y560A, fluorescein (FAM) label; phosphoserine at 558); test: fluorescence polarisation; CHC proteins serially diluted in 20 mM HEPES–NaOH pH 7.5, 200 mM NaCl, 5 mM DTT; 50 nM FAM‐labelled TACC3 peptide; 30 min at room temperature; read at 25°C; conditions: both partners purified
T3 construct: TACC3, human, aa549–570 (TACC3^CID); source: FAM‐labelled peptide (FAM‐TACC3 peptides: PPR, Cambridge; Almac, Craigavon)
T3 peptide (looked up): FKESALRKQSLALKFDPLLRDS

[12] = biological target: T4, FAM‐phospho‐TACC3^CID F563A (human, UniProt Q9Y6A5 549-570, F563A, fluorescein (FAM) label; phosphoserine at 558); test: as above; conditions: both partners purified
T4 construct: TACC3, human, aa549–570 (TACC3^CID); source: FAM‐labelled peptide (FAM‐TACC3 peptides: PPR, Cambridge; Almac, Craigavon)
T4 peptide (looked up): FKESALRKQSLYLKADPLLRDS

[13] = biological target: T5, FAM‐phospho‐TACC3^CID L559A (human, UniProt Q9Y6A5 549-570, L559A, fluorescein (FAM) label; phosphoserine at 558); test: as above; conditions: both partners purified
T5 construct: TACC3, human, aa549–570 (TACC3^CID); source: FAM‐labelled peptide (FAM‐TACC3 peptides: PPR, Cambridge; Almac, Craigavon)
T5 peptide (looked up): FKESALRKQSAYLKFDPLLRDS

[14] = biological target: T6, FAM‐TACC3 549–570 phosphorylated on S558 (FAM‐phospho‐TACC3^CID) (human, UniProt Q9Y6A5 549-570, fluorescein (FAM) label; phosphoserine at 558); test: as above; conditions: both partners purified
T6 construct: TACC3, human, aa549–570 (TACC3^CID); also called pTACC3^CID; FAM‐labelled pTACC3^CID; source: FAM‐labelled peptide (FAM‐TACC3 peptides: PPR, Cambridge; Almac, Craigavon)
T6 peptide (looked up): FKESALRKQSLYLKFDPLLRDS

[15] = biological target: The R555A mutation alone or in combination with K556A (FAM‐phospho‐TACC3^CID peptides); test: as above
[16] = biological target: B1; test: as above; conditions: both partners purified
[17] = biological target: T7, CHC 1–574 (clathrin heavy chain propeller‐ankle fragment) (UniProt Q00610 1-574); test: FP
T7 chain: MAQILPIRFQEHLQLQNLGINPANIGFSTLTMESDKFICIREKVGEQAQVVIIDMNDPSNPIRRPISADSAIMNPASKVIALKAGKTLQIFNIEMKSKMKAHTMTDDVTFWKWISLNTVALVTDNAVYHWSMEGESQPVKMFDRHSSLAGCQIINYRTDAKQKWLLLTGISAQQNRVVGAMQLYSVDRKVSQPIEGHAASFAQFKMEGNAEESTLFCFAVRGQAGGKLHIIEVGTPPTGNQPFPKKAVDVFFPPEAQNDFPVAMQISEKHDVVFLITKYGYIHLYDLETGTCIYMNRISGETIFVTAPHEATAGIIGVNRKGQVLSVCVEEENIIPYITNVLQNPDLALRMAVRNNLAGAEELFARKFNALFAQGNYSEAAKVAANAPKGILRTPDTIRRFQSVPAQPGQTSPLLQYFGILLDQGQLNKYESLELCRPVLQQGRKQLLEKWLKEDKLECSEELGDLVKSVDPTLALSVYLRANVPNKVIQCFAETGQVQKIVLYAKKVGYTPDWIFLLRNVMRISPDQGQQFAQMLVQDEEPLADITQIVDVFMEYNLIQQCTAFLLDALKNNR

[18] = biological target: T7, CHC 1–574 (clathrin heavy chain …); test: FP
[19] = biological target: T8, Aurora‐A 122–403 D274N (human, UniProt O14965 122-403, D274N); test: NMR titration; 13C/15N‐labelled TACC3 peptide (300 μM) alone and in complex with Aurora‐A 122–403 D274N; 20 mM KPO4 pH 7.0, 50 mM NaCl, 1 mM DTT; 298 K; chemical shift perturbation; conditions: both partners purified
T8 construct: also called Aurora‐A^KD D274N; source: expressed and purified as described in previous work (Burgess et al, 2015)
T8 sequence (looked up): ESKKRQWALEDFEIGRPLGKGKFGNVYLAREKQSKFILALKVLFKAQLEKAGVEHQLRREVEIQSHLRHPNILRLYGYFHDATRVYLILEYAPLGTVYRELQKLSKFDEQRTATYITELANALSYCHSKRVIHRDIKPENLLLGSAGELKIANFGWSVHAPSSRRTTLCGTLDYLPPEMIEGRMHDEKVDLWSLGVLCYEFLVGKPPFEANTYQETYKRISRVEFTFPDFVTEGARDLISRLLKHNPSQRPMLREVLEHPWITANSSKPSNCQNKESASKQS

propensity for helix formation (CSI) [1]: tendency towards helix formation
Molecule: FKESALRKQSLYLKFDPLLRDS [unphosphorylated peptide, synthetic TACC3 549–570 peptide, unphosphorylated, used for NMR]

Kd [16]: 216 µM
B2: FAM‐non‐phosphorylated TACC3^CID (aa549–570) (peptide, UniProt Q9Y6A5 549-570, looked up)
peptide: {FAM}-FKESALRKQSLYLKFDPLLRDS
notes: TACC3, human, aa549–570 (TACC3^CID); also called unphosphorylated TACC3^CID peptide; S558; source: FAM‐labelled peptide (FAM‐TACC3 peptides: PPR, Cambridge; Almac, Craigavon)

Kd [18]: 345 µM
B4: FAM‐phospho‐TACC3^CID L566A, L567A (peptide)
chain: {FAM}-FKESALRKQ[pS]LYLKFDPAARDS

More lines, now with the values behind:

Molecule: TACC3 519–563‐H6c (WT TACC3^N‐ACIDH6c) (from UniProt Q9Y6A5 519-563) (domain or fragment)
32P‐ATP kinase assay with MBP as substrate: stimulation of Aurora‐A activity [2]: 8 fold

Molecule: WT Aurora‐A (of the FP assays) (from UniProt O14965 122-403) (domain or fragment)
Kd [3]: 20 µM | Kd [4]: 14 µM | Kd [5]: 3 µM | Kd [6]: 2300 µM | Kd [7]: 49 µM | Kd [8]: 251 µM

Molecule: B1
Kd [9]: 39 µM | Kd [10]: 48 µM | fold reduction in affinity against WT [11]: ≥ 4 fold | fold reduction in affinity against WT [12]: ≥ 4 fold | fold reduction in affinity against WT [13]: ≥ 4 fold | fold increase in affinity against non‐phosphorylated TACC3^CID [14]: 4 fold | fold reduction in affinity against WT [15]: 4 to 5 fold

B3: FAM‐phospho‐TACC3^CID R555A, K556A (peptide)
peptide: {FAM}-FKESALAAQ[pS]LYLKFDPLLRDS
Kd [17]: 209 µM

B5: ^13C^15N TACC3 519–540 (domain or fragment, human, UniProt Q9Y6A5 519-540, looked up)
chain: ELKEESFRDPAEVLGTGAEVDY
modifications: also: 13C, 15N labelled
notes: TACC3, human, aa519–540 (stop codon at residue 541 of pETM6T1 TACC3 519–563); source: expressed and purified as described for 13C15N‐TACC3 519–563 (Burgess et al, 2015)
binding result [19]: binds

Source: PMC5897774, “Mitotic spindle association of TACC3 requires Aurora‐A‐dependent stabilization of a cryptic α‐helix” (The EMBO Journal, 2018)
